Source: publication PMC8537121

Tests used:
[1] = target: Human MAP/Microtubule Affinity Regulating Kinase 4 (MARK4), recombinant, containing both kinase and UBA domains (human) (UniProt Q96L34); experiment: other fluorescence titration; quenching of the intrinsic fluorescence of MARK4 (emission at 344 nm) by irisin, 0-1 µM; fitted to a modified Stern-Volmer equation
[2] = target: Human MAP/Microtubule Affinity Regulating Kinase 4 (MARK4), recombinant, containing both kinase and UBA domains (human) (UniProt Q96L34)
[3] = target: Human MAP/Microtubule Affinity Regulating Kinase 4 (MARK4), recombinant, containing both kinase and UBA domains (human) (UniProt Q96L34); experiment: ITC; VP-ITC; 15 µM MARK4 in the sample cell, 200 µM irisin in the syringe; two-site model

Chain of UniProt Q96L34 (Q96L34 44-370): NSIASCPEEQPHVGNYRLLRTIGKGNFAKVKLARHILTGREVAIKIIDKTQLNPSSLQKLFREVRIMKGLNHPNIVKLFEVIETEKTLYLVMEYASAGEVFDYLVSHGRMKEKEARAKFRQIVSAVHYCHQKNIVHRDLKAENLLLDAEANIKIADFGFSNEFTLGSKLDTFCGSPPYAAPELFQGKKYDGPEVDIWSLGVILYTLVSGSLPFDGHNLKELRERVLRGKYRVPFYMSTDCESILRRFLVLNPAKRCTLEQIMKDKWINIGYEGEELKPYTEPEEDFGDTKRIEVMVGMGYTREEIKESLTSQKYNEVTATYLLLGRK

Human irisin (natural protein)
Ka [1]: 8e+06 M⁻¹ | IC50 of inhibition of MARK4 kinase activity (ATPase assay), irisin 0-15 µM [2]: 2710 nM | Ka1 (site 1 of the two-site model) [3]: 2590 M⁻¹ | Ka2 (site 2 of the two-site model) [3]: 1.19e+06 M⁻¹ | dH1 (site 1 of the two-site model) [3]: -1550 kcal/mol | dH2 (site 2 of the two-site model) [3]: 190 kcal/mol
